Measured values from US20220403041A1 (Sanofi, published 2022).

Experiments:
soluble CD73 dimer [1] = biological target: T1, soluble CD73 dimer (human, UniProt P21589 27-549, limits assumed); experiment: SPR, antibody captured on chip, CD73 in flow; biphasic fit, share by T0 intercept of the component with kd 4.06E-03 1/s
T1 construct: CD73 in the flow (SPR) or in solution (BLI binning); also called soluble human CD73
T1 sequence: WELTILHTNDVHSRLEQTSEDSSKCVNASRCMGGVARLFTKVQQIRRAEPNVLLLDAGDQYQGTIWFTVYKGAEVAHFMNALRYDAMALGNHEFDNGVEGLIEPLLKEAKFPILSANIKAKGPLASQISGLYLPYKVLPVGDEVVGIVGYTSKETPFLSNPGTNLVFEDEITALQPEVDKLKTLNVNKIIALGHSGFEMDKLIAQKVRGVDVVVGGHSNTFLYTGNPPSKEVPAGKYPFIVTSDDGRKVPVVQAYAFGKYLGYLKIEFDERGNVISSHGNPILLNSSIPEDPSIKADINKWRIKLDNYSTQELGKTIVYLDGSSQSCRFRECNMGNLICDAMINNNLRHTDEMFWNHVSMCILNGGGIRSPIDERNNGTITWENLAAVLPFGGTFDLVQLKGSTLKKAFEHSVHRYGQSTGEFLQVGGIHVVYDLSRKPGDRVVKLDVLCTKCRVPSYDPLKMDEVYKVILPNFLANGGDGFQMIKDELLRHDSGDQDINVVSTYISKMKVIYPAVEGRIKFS

soluble CD73 dimer [2] = biological target: T1, soluble CD73 dimer; experiment: SPR, antibody captured on chip, CD73 in flow; biphasic fit, share by T0 intercept of the component with kd 1.28E-04 1/s
soluble CD73 dimer [3] = biological target: T1, soluble CD73 dimer; experiment: SPR dissociation kinetics
soluble CD73 dimer [4] = biological target: T1, soluble CD73 dimer; experiment: SPR, antibody captured on Protein A chip, CD73 in flow; Langmuir ka with major component kd
soluble CD73 dimer [5] = biological target: T1, soluble CD73 dimer; experiment: SPR, antibody captured on chip, CD73 in flow; biphasic fit, share after 300 s binding phase of the component with ka 8.50E+05 1/Ms
soluble CD73 dimer [6] = biological target: T1, soluble CD73 dimer; experiment: SPR, antibody captured on Protein A chip, CD73 in flow; biphasic fit, component of abundance 9%
[7] = biological target: T2, human CD73 on COR-L23 lung carcinoma cells (human) (UniProt P21589)
T2 sequence: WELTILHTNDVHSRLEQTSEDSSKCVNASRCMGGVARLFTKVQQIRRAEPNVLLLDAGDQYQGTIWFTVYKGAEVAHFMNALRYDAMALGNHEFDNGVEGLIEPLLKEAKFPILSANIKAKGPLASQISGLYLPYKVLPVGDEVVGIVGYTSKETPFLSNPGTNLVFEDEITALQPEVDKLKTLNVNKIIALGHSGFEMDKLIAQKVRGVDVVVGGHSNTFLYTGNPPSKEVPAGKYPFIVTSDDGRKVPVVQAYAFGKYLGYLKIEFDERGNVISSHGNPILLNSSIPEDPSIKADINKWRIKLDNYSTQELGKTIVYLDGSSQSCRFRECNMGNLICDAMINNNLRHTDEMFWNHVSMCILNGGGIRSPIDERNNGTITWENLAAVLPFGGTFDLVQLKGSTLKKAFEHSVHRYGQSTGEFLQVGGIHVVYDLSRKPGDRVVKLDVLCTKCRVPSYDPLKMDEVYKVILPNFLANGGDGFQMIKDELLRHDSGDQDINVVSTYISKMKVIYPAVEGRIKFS

soluble CD73 dimer [8] = biological target: T1, soluble CD73 dimer; experiment: SPR, antibody captured on Protein A chip, CD73 in flow; Langmuir 1:1 fit
soluble CD73 dimer [9] = biological target: T1, soluble CD73 dimer; experiment: SPR, antibody captured on Protein A chip, CD73 in flow; biphasic fit, component of abundance 57%
[10] = biological target: T2, human CD73 on COR-L23 lung carcinoma cells (human); experiment: cell-based or functional assay
soluble CD73 dimer [11] = biological target: T1, soluble CD73 dimer; experiment: SPR, antibody captured on chip, CD73 in flow; biphasic fit, share after 300 s binding phase of the component with ka 1.58E+05 1/Ms
soluble CD73 dimer [12] = biological target: T1, soluble CD73 dimer; experiment: SPR, antibody captured on Protein A chip, CD73 in flow; biphasic fit, component of abundance 91%
soluble CD73 dimer [13] = biological target: T1, soluble CD73 dimer; experiment: SPR, antibody captured on Protein A chip, CD73 in flow; biphasic fit, component of abundance 43%
[14] = biological target: T3, human CD73 on COR-L23 lung carcinoma cells (human, UniProt P21589 27-549); experiment: cell-based or functional assay
T3 sequence: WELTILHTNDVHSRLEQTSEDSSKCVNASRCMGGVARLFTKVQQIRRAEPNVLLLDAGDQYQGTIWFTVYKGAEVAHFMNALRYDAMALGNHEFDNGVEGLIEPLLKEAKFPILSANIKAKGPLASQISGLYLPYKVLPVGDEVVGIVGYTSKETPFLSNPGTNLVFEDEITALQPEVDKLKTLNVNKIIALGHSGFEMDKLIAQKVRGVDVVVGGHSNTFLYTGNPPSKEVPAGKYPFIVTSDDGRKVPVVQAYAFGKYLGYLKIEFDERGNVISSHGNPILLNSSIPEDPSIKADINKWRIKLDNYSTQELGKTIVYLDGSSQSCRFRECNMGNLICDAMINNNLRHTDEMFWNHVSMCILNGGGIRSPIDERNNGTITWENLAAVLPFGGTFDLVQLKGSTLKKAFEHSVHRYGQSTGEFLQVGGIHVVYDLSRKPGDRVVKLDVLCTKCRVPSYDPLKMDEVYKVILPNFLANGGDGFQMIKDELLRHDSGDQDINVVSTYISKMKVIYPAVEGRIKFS

B1: E3.2/TB19 (bispecific antibody, part only; not given: E3.2 arm; constant regions, V domains shown, part only)
VH: QEQLQESGPGLVKPSETLSLTCTVSGGSIRNNYYNWIRQPAGKGLEWIGRIYISGTTNSNPSLKSRVTMSIDTSKNQFSLKLSSVTAADTAIYYCAREHYVSGTSLDNWGQGTLVTVSS
VL: EIVMTQSPTTLSLSPGERATLSCRASQSVNTNYFSWYQQKPGLTPRLLIYGTSTRATGIPARFSGSGSGTDFTLTISSLQPEDFGIYYCQQDYNLPYTFGQGTYLEIK
Q: B1 was tested. Which abundance of dissociation component (biphasic fit) (soluble CD73 dimer [1]) did it give?
A: 9%

Q: And the abundance of dissociation component (biphasic fit) (soluble CD73 dimer [2])?
A: 91%

Q: And the fold more stable (kd of the principal component) than with either monovalent parental (soluble CD73 dimer [3])?
A: 5.4 fold

Q: And the Kd (soluble CD73 dimer [4])?
A: 0.352 nM

Q: And the abundance of association component (biphasic fit) (soluble CD73 dimer [5])?
A: 43%

Q: And the koff (soluble CD73 dimer [6])?
A: 0.00406 s⁻¹

Q: What about the % inhibition of CD73 activity at 1 µg/ml antibody (COR-L23 cells, 4 h, LC/MS); cell E3.2 x TB19 [7] of the same binder?
A: 95%

Q: And the koff (soluble CD73 dimer [8])?
A: 0.000164 s⁻¹

Q: What about the kon (soluble CD73 dimer [8]) of the same binder?
A: 364000 M⁻¹ s⁻¹

Q: What about the kon (soluble CD73 dimer [9]) of the same binder?
A: 158000 M⁻¹ s⁻¹

Q: And the EC50 (nM) of inhibition of CD73 activity (adenosine by LC/MS) [10]?
A: 0.443 nM

Q: What about the Max Inhib. (projected maximal inhibition at saturating antibody) [10] of the same binder?
A: 97%

Q: And the inhibition of CD73 enzymatic activity on COR-L23 cells at 1 µg/mL [10]?
A: > 95%

Q: What about the abundance of association component (biphasic fit) (soluble CD73 dimer [11]) of the same binder?
A: 57%

Q: What about the koff (soluble CD73 dimer [12]) of the same binder?
A: 0.000128 s⁻¹

Q: What about the kon (soluble CD73 dimer [13]) of the same binder?
A: 850000 M⁻¹ s⁻¹

B2: TB19/TB38 (bispecific antibody, V domains shown)
VH 1: QEQLQESGPGLVKPSETLSLTCTVSGGSIRNNYYNWIRQPAGKGLEWIGRIYISGTTNSNPSLKSRVTMSIDTSKNQFSLKLSSVTAADTAIYYCAREHYVSGTSLDNWGQGTLVTVSS
VL 1: EIVMTQSPTTLSLSPGERATLSCRASQSVNTNYFSWYQQKPGLTPRLLIYGTSTRATGIPARFSGSGSGTDFTLTISSLQPEDFGIYYCQQDYNLPYTFGQGTYLEIK
VH 2: QVQLVESGGGVVQPGRSLRLSCAASGFTFSSYGMHWVRQAPGKGLEWVAVFWYDGSNKYYADSVKGRFTISRDNSKNTLYLQMNSLSAEDTAVYYCARAPNWDDAFDIWGQGTMVTVSS
VL 2: QTVVTQEPSFSVSPGGTVTLTCGLSSGSVSTSYYPNWYQQTPGQAPRTLIYSTNTRSSGVPDRFSGSILGNKAALTITGAQADDESDYYCVLFMGSGIWVFGGGTKLTVL
notes: Biparatopic human IgG1 made by Fab-arm exchange; also called TB19/TB38 biparatopic antibody
Q: How did the Kd (soluble CD73 dimer [4]) turn out when B2 was run?
A: 0.555 nM

Q: What about the koff (soluble CD73 dimer [8]) of the same binder?
A: 0.000102 s⁻¹

Q: And the kon (soluble CD73 dimer [8])?
A: 184000 M⁻¹ s⁻¹

Q: What about the “EC50 (nM) of inhibition of CD73 activity (adenosine by LC/MS)” value [14] of the same binder?
A: 0.777 nM
